The numbers were not newly measured in patent US20040126825A1, “Methods of screening and using inhibitors of angiogenesis” (Allergan, Inc, priority 2001, published 2004), which cites them from elsewhere.

This data set deals with MMP-2. The conditions noted are these: cultured breast carcinoma cells; Deryugina et al. 2001.

As to vitronectin: a specific ligand of αvβ3, the “activation of MMP-2 (conversion from pro-form to active form)” value was “inhibited”.
